Consider one molecule from PMC12048566.

The target in this series is T1, GST-OsARF24 (Oryza sativa (rice), UniProt Q2QQX6 1-841).
T1 sequence: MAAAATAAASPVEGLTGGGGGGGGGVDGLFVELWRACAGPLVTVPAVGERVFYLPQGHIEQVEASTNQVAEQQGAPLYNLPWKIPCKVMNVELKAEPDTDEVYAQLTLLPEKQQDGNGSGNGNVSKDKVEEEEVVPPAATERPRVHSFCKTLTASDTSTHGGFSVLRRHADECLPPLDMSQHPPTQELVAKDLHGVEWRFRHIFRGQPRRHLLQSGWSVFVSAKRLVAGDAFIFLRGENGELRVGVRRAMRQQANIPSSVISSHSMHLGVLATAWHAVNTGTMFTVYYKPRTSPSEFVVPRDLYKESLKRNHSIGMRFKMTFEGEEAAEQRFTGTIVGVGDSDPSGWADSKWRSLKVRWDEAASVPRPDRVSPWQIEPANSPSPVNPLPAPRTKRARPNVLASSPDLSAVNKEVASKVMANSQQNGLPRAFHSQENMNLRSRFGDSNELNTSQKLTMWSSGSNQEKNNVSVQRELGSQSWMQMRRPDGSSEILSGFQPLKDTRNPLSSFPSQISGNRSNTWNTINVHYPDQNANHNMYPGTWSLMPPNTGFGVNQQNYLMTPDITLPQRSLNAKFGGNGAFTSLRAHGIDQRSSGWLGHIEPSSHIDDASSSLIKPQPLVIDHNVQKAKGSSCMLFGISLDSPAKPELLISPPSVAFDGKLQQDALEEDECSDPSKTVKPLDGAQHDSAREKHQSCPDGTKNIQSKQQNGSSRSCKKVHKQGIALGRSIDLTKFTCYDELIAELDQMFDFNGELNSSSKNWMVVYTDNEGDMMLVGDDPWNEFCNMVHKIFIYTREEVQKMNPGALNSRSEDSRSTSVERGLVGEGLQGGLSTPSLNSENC
The series can be described thus: EMSA. On the technique in general: A gel shift assay detects complexes by their altered migration in electrophoresis.

B1: ARF probe (OsMAP1/OsMPK3 promoter) (dsDNA)
DNA 1: TCATCGCCTTGCTGTCTCTGCGAATCGAGA
DNA 2: TCTCGATTCGCAGAGACAGCAAGGCGATGA
For the molecule B1, the binding result is given as “binds”.
